Experimental data from patent publication US20110008766A1.

biological target: HIV antigen; assay: FRET quenching titration in solution; one value given for outer and inner domain

Row | Kd [pM] | Binder
1 | < 60 | DVD747 (bispecific antibody) VH: QVQLQQSGAELMKPGASVKISCKASGYTFTSYWIEWIKQRPGHGLEWIGEILPGTGSLNNNEKFRDKATFTADTSSNTAYMQLSSLTSEDSAVYYCARGYRYDGWFAYWGQGTLVTVSAASTKGPSVFPLAPASTKGPSVFPLAPEVQLQQSGPELVKPGASMKISCKASDYSFTAYTIHWMKQSHGKNLEWIGLINPYNGGTSYNQKFQGRATLTVDKSSSIAYMELLSLTSEDSAVYYCARRGYDREGHYYAMDYWGQGTSVTVSS VL: DIQMTQSPASLSASVGETVTITCRTSENIYSYLAWYQQKPGKSPHLLVYNTKTLAEGVPSRFSGSGSGTQFSLKINSLQPEDFGSYYCQHHYDSPLTFGSGTKLELKRTVAAPSVFIFPPTVAAPSVFIFPPDIQMTQSPASLAASVGETVTITCRASENIYTFLAWYQQKQGKSPQLLVYTTKTLAEGVPSRFSGSGSGTQFSLKIKSLQPEDFGSYYCQHHYGLPLTFGAGTKLELKR
2 | < 20 | DVD715 (antibody) VH: QVQLQQSGAELMKPGASVKISCKASGYTFTSYWIEWIKQRPGHGLEWIGEILPGTGSLNNNEKFRDKATFTADTSSNTAYMQLSSLTSEDSAVYYCARGYRYDGWFAYWGQGTLVTVSAASTKGPQVQLQQSGAELMKPGASVKISCKASGYTFTSYWIEWIKQRPGHGLEWIGEILPGTGSLNNNEKFRDKATFTADTSSNTAYMQLSSLTSEDSAVYYCARGYRYDGWFAYWGQGTLVTVSA VL: DIQMTQSPASLSASVGETVTITCRTSENIYSYLAWYQQKPGKSPHLLVYNTKTLAEGVPSRFSGSGSGTQFSLKINSLQPEDFGSYYCQHHYDSPLTFGSGTKLELKRTVAAPDIQMTQSPASLSASVGETVTITCRTSENIYSYLAWYQQKPGKSPHLLVYNTKTLAEGVPSRFSGSGSGTQFSLKINSLQPEDFGSYYCQHHYDSPLTFGSGTKLELKR
3 | < 30 | DVD748 (bispecific antibody) VH: EVQLQQSGPELVKPGASMKISCKASDYSFTAYTIHWMKQSHGKNLEWIGLINPYNGGTSYNQKFQGRATLTVDKSSSIAYMELLSLTSEDSAVYYCARRGYDREGHYYAMDYWGQGTSVTVSSASTKGPSVFPLAPQVQLQQSGAELMKPGASVKISCKASGYTFTSYWIEWIKQRPGHGLEWIGEILPGTGSLNNNEKFRDKATFTADTSSNTAYMQLSSLTSEDSAVYYCARGYRYDGWFAYWGQGTLVTVSA VL: DIQMTQSPASLAASVGETVTITCRASENIYTFLAWYQQKQGKSPQLLVYTTKTLAEGVPSRFSGSGSGTQFSLKIKSLQPEDFGSYYCQHHYGLPLTFGAGTKLELKRTVAAPSVFIFPPDIQMTQSPASLSASVGETVTITCRTSENIYSYLAWYQQKPGKSPHLLVYNTKTLAEGVPSRFSGSGSGTQFSLKINSLQPEDFGSYYCQHHYDSPLTFGSGTKLELKR
4 | 200 | DVD746 (bispecific antibody) VH: QVQLQQSGAELMKPGASVKISCKASGYTFTSYWIEWIKQRPGHGLEWIGEILPGTGSLNNNEKFRDKATFTADTSSNTAYMQLSSLTSEDSAVYYCARGYRYDGWFAYWGQGTLVTVSAASTKGPSVFPLAPEVQLQQSGPELVKPGASMKISCKASDYSFTAYTIHWMKQSHGKNLEWIGLINPYNGGTSYNQKFQGRATLTVDKSSSIAYMELLSLTSEDSAVYYCARRGYDREGHYYAMDYWGQGTSVTVSS VL: DIQMTQSPASLSASVGETVTITCRTSENIYSYLAWYQQKPGKSPHLLVYNTKTLAEGVPSRFSGSGSGTQFSLKINSLQPEDFGSYYCQHHYDSPLTFGSGTKLELKRTVAAPSVFIFPPDIQMTQSPASLAASVGETVTITCRASENIYTFLAWYQQKQGKSPQLLVYTTKTLAEGVPSRFSGSGSGTQFSLKIKSLQPEDFGSYYCQHHYGLPLTFGAGTKLELKR
5 | < 20 | DVD716 (antibody) VH: QVQLQQSGAELMKPGASVKISCKASGYTFTSYWIEWIKQRPGHGLEWIGEILPGTGSLNNNEKFRDKATFTADTSSNTAYMQLSSLTSEDSAVYYCARGYRYDGWFAYWGQGTLVTVSAASTKGPSVFPLAPQVQLQQSGAELMKPGASVKISCKASGYTFTSYWIEWIKQRPGHGLEWIGEILPGTGSLNNNEKFRDKATFTADTSSNTAYMQLSSLTSEDSAVYYCARGYRYDGWFAYWGQGTLVTVSA VL: DIQMTQSPASLSASVGETVTITCRTSENIYSYLAWYQQKPGKSPHLLVYNTKTLAEGVPSRFSGSGSGTQFSLKINSLQPEDFGSYYCQHHYDSPLTFGSGTKLELKRTVAAPSVFIFPPDIQMTQSPASLSASVGETVTITCRTSENIYSYLAWYQQKPGKSPHLLVYNTKTLAEGVPSRFSGSGSGTQFSLKINSLQPEDFGSYYCQHHYDSPLTFGSGTKLELKR
6 | 400 | DVD744 (antibody) VH: QIQLVQSGPELKKPGETVKISCKASGYTFTDYSMHWVKQAPGKGLKWMGWIHTETGEPRYVDDFKGRFAFSLETSASTAYLQINNLKNEDTATYFCARDSYYFGSSYYFDYWGQGTTLTVSSASTKGPSVFPLAPQIQLVQSGPELKKPGETVKISCKASGYTFTDYSMHWVKQAPGKGLKWMGWIHTETGEPRYVDDFKGRFAFSLETSASTAYLQINNLKNEDTATYFCARDSYYFGSSYYFDYWGQGTTLTVSS VL: DTVMTQSHKFMSTSVGDRVSITCKASQDVSSAVAWYQQKPGQSPKLLIYSASYRYTGVPDRFTGSGSGMDFTFTISSVQAEDLAVYYCQQHYSTPLTFGAGTKLELERTVAAPSVFIFPPDTVMTQSHKFMSTSVGDRVSITCKASQDVSSAVAWYQQKPGQSPKLLIYSASYRYTGVPDRFTGSGSGMDFTFTISSVQAEDLAVYYCQQHYSTPLTFGAGTKLELER
7 | 400 | DVD745 (antibody) VH: QIQLVQSGPELKKPGETVKISCKASGYTFTDYSMHWVKQAPGKGLKWMGWIHTETGEPRYVDDFKGRFAFSLETSASTAYLQINNLKNEDTATYFCARDSYYFGSSYYFDYWGQGTTLTVSSASTKGPQIQLVQSGPELKKPGETVKISCKASGYTFTDYSMHWVKQAPGKGLKWMGWIHTETGEPRYVDDFKGRFAFSLETSASTAYLQINNLKNEDTATYFCARDSYYFGSSYYFDYWGQGTTLTVSS VL: DTVMTQSHKFMSTSVGDRVSITCKASQDVSSAVAWYQQKPGQSPKLLIYSASYRYTGVPDRFTGSGSGMDFTFTISSVQAEDLAVYYCQQHYSTPLTFGAGTKLELERTVAAPDTVMTQSHKFMSTSVGDRVSITCKASQDVSSAVAWYQQKPGQSPKLLIYSASYRYTGVPDRFTGSGSGMDFTFTISSVQAEDLAVYYCQQHYSTPLTFGAGTKLELER
8 | < 20 | DVD750 (antibody) VH: EVQLQQSGPELVQPGASMKISCKASGYSFTDYTMNWVKQSHGKNLEWIGLINPYNGGSRYNQKFMAKATLTVDKSSNTAYMELLSVTSEDSAVYYCARDAGYFGSGFYFDYWGQGTTLTVSSASTKGPSVFPLAPEVQLQQSGPELVQPGASMKISCKASGYSFTDYTMNWVKQSHGKNLEWIGLINPYNGGSRYNQKFMAKATLTVDKSSNTAYMELLSVTSEDSAVYYCARDAGYFGSGFYFDYWGQGTTLTVSS VL: DIVMTQSHKFMSTSVGDRVSITCKASQDVSTAVAWYQQKPGQSPKLLIYSASYRSTGVPDRFTGSGSGTDFTFTISSVQAEDLAVYYCQQHYSTPTFGAGTKLELKRTVAAPSVFIFPPDIVMTQSHKFMSTSVGDRVSITCKASQDVSTAVAWYQQKPGQSPKLLIYSASYRSTGVPDRFTGSGSGTDFTFTISSVQAEDLAVYYCQQHYSTPTFGAGTKLELKR
